This is an account of results in article PMC3367207 (Nucleic Acids Research, 2012).

The data set deals with the molecule itself. Nature of the data set: FRET or BRET. In general terms: BRET reads energy transfer from a luciferase to a nearby fluorophore.

B1: FokI restriction endonuclease (enzyme, UniProt P14870 1-579, looked up)
chain: MVSKIRTFGWVQNPGKFENLKRVVQVFDRNSKVHNEVKNIKIPTLVKESKIQKELVAIMNQHDLIYTYKELVGTGTSIRSEAPCDAIIQATIADQGNKKGYIDNWSSDGFLRWAHALGFIEYINKSDSFVITDVGLAYSKSADGSAIEKEILIEAISSYPPAIRILTLLEDGQHLTKFDLGKNLGFSGESGFTSLPEGILLDTLANAMPKDKGEIRNNWEGSSDKYARMIGGWLDKLGLVKQGKKEFIIPTLGKPDNKEFISHAFKITGEGLKVLRRAKGSTKFTRVPKRVYWEMLATNLTDKEYVRTRRALILEILIKAGSLKIEQIQDNLKKLGFDEVIETIENDIKGLINTGIFIEIKGRFYQLKDHILQFVIPNRGVTKQLVKSELEEKKSELRHKLKYVPHEYIELIEIARNSTQDRILEMKVMEFFMKVYGYRGKHLGGSRKPDGAIYTVGSPIDYGVIVDTKAYSGGYNLPIGQADEMQRYVEENQTRNKHINPNEWWKVYPSSVTEFKFLFVSGHFKGNYKAQLTRLNHITNCNGAVLSVEELLIGGEMIKAGTLTLEEVRRKFNNGEINF
For B1, the binding result is listed as “binds”.
